# Results published in the Immune Epitope Database (IEDB).
# Tests used:
# HLA-A*02:03 = test: IEDB peptide-MHC binding, purified MHC/direct/fluorescence; filed as Kd, often an IC50 or EC50 that approximates it; ≥ and ≤ were set here for values at or beyond the usual limits of such assays
# HLA-A*02:11 = test: as above
# HLA-A*02:12 = test: as above
# HLA-A*02:16 = test: as above
# HLA-A*02:19 = test: as above
# HLA-A*03:01 = test: as above
# HLA-A*23:01 = test: as above
# HLA-A*24:03 = test: as above
# HLA-A*26:01 [1] = test: as above; settings: source organism: Sudan ebolavirus - Uganda (2000)
# HLA-A*68:02 = test: as above
# HLA-A*02:01 = test: IEDB peptide-MHC binding, purified MHC/competitive/fluorescence; filed as Kd, often an IC50 or EC50 that approximates it; ≥ and ≤ were set here for values at or beyond the usual limits of such assays
# HLA-A*69:01 = test: as above
# HLA-B*18:01 = test: as above
# HLA-B*27:03 = test: as above
# HLA-B*39:01 = test: as above
# HLA-B*46:01 = test: as above
# HLA-B*57:01 = test: as above
# HLA-A*29:02 = test: IEDB peptide-MHC binding, purified MHC/direct/fluorescence; filed as Kd, often an IC50 or EC50 that approximates it; ≥ and ≤ were set here for values at or beyond the usual limits of such assays
# HLA-B*07:02 = test: as above; settings: source organism: Zaire ebolavirus
# HLA-A*26:01 [2] = test: IEDB peptide-MHC binding, purified MHC/competitive/fluorescence; filed as Kd, often an IC50 or EC50 that approximates it; ≥ and ≤ were set here for values at or beyond the usual limits of such assays
# HLA-B*15:01 = test: as above; settings: source organism: Zaire ebolavirus
# HLA-B*15:17 = test: as above
# HLA-B*35:01 = test: as above; settings: source organism: Zaire ebolavirus
# HLA-B*51:01 = test: as above
# HLA-A*11:01 = test: IEDB peptide-MHC binding, purified MHC/direct/fluorescence; filed as Kd, often an IC50 or EC50 that approximates it; ≥ and ≤ were set here for values at or beyond the usual limits of such assays; settings: source organism: Bacillus cereus NVH0597-99
# [3] = source organism: Zaire ebolavirus
# [4] = source organism: Ravn virus - Ravn, Kenya, 1987
# [5] = source organism: Bacillus cereus NVH0597-99
# [6] = source organism: Bacillus thuringiensis serovar israelensis ATCC 35646
sequence,measurement,setting,value
ATAAATEAY,Kd,HLA-A*02:03; [3],≥ 20 µM
same,Kd,HLA-A*02:11; [3],≥ 20 µM
same,Kd,HLA-A*02:12; [3],≥ 20 µM
same,Kd,HLA-A*02:16; [3],≥ 20 µM
same,Kd,HLA-A*02:19; [3],≥ 20 µM
same,Kd,HLA-A*03:01; [3],≥ 20 µM
same,Kd,HLA-A*23:01; [3],≥ 20 µM
same,Kd,HLA-A*24:03; [3],≥ 20 µM
same,Kd,HLA-A*26:01 [1],0.216 µM
same,Kd,HLA-A*68:02; [3],≥ 20 µM
same,Kd,HLA-A*02:01; [3],≥ 20 µM
same,Kd,HLA-A*69:01; [3],≥ 20 µM
same,Kd,HLA-B*18:01; [3],≥ 20 µM
same,Kd,HLA-B*27:03; [3],≥ 20 µM
same,Kd,HLA-B*39:01; [3],≥ 20 µM
same,Kd,HLA-B*46:01; [3],≥ 20 µM
same,Kd,HLA-B*57:01; [3],≥ 20 µM
FPSNMMVVT,Kd,HLA-A*02:03; [4],≥ 20 µM
same,Kd,HLA-A*02:11; [4],≥ 20 µM
same,Kd,HLA-A*02:12; [4],≥ 20 µM
same,Kd,HLA-A*02:16; [4],≥ 20 µM
same,Kd,HLA-A*02:19; [4],≥ 20 µM
same,Kd,HLA-A*03:01; [4],≥ 20 µM
same,Kd,HLA-A*23:01; [4],≥ 20 µM
same,Kd,HLA-A*24:03; [4],≥ 20 µM
same,Kd,HLA-A*29:02; [4],≥ 20 µM
same,Kd,HLA-A*68:02; [4],≥ 20 µM
same,Kd,HLA-B*07:02,0.751 µM
same,Kd,HLA-A*02:01; [3],≥ 20 µM
same,Kd,HLA-A*26:01 [2]; [3],≥ 20 µM
same,Kd,HLA-A*69:01; [3],≥ 20 µM
same,Kd,HLA-B*15:01,≥ 20 µM
same,Kd,HLA-B*15:17; [3],≥ 20 µM
same,Kd,HLA-B*18:01; [3],≥ 20 µM
same,Kd,HLA-B*27:03; [3],≥ 20 µM
same,Kd,HLA-B*35:01,0.0004 µM
same,Kd,HLA-B*39:01; [3],≥ 20 µM
same,Kd,HLA-B*46:01; [3],≥ 20 µM
same,Kd,HLA-B*51:01; [3],≥ 20 µM
same,Kd,HLA-B*57:01; [3],≥ 20 µM
GLSFLNPEK,Kd,HLA-A*02:03; [4],≥ 20 µM
same,Kd,HLA-A*02:12; [4],≥ 20 µM
same,Kd,HLA-A*02:19; [4],≥ 20 µM
same,Kd,HLA-A*03:01; source organism: Sudan ebolavirus - Maleo (1979),0.152 µM
same,Kd,HLA-A*23:01; [4],≥ 20 µM
same,Kd,HLA-A*24:03; [4],≥ 20 µM
same,Kd,HLA-A*68:02; [4],≥ 20 µM
same,Kd,HLA-A*26:01 [2]; [3],≥ 20 µM
same,Kd,HLA-A*69:01; [3],≥ 20 µM
same,Kd,HLA-B*15:01,≥ 20 µM
same,Kd,HLA-B*15:17; [3],≥ 20 µM
same,Kd,HLA-B*18:01; [3],≥ 20 µM
same,Kd,HLA-B*27:03; [3],≥ 20 µM
same,Kd,HLA-B*39:01; [3],≥ 20 µM
same,Kd,HLA-B*46:01; [3],≥ 20 µM
same,Kd,HLA-B*51:01; [3],≥ 20 µM
same,Kd,HLA-B*57:01; [3],≥ 20 µM
ITMYVAFEQ,Kd,HLA-A*02:03; [5],≥ 20 µM
same,Kd,HLA-A*02:11; [5],≥ 20 µM
same,Kd,HLA-A*02:12; [5],≥ 20 µM
same,Kd,HLA-A*02:16; [5],≥ 20 µM
same,Kd,HLA-A*02:19; [5],≥ 20 µM
same,Kd,HLA-A*03:01; [5],≥ 20 µM
same,Kd,HLA-A*11:01,≥ 20 µM
same,Kd,HLA-A*23:01; [5],≥ 20 µM
same,Kd,HLA-A*24:03; [5],≥ 20 µM
same,Kd,HLA-A*29:02; [5],≥ 20 µM
same,Kd,HLA-A*68:02; [5],≥ 20 µM
same,Kd,HLA-A*02:01; [6],≥ 20 µM
same,Kd,HLA-A*26:01 [2]; [6],≥ 20 µM
same,Kd,HLA-A*69:01; [6],≥ 20 µM
same,Kd,HLA-B*15:17; [6],≥ 20 µM
same,Kd,HLA-B*18:01; [6],≥ 20 µM
same,Kd,HLA-B*27:03; [6],≥ 20 µM
same,Kd,HLA-B*39:01; [6],≥ 20 µM
same,Kd,HLA-B*46:01; [6],≥ 20 µM
same,Kd,HLA-B*51:01; [6],≥ 20 µM
same,Kd,HLA-B*57:01; [6],≥ 20 µM
